Measurements taken from US5989519A, “Technetium-99m labeled peptides for imaging inflammation” (Diatide, Inc., priority 1994, dated 1999).
Numbered stars: 1 amine (or outer) side, 2 acyl side, 3 side chain; on linkers, the order of the positions; unused ones are H or OH. Square brackets hold non-standard residues; d marks the D form. Ends that are not written are not given here. Peptide text beside a SMILES is read from it. * marks the point of attachment. BAT = N6,N9-bis(2-methyl-2-mercaptopropyl)-6,9-diazanonanoic acid (chelator), CC(C)(S)CNCCN(CCCCC(=O)*)CC(C)(C)S; C(Acm) = CC(=O)NCSC[C@H](N[*:1])C(=O)[*:2]; X1 = CC(C)(S)CNCCN(CCCCC(=O)*)CC(C)(C)S; pGlu = O=C1CC[C@@H](C(=O)O)N1; Picolinoyl = O=C(c1ccccn1)*; Acm = CC(=O)NC*; For = O=C*

Legend:
infected muscle tissue = assay: in vivo; design: species or system New Zealand white rabbits; settings: rabbit; for Blood (% ID/g) / Control Muscle (% ID/g): iv
Protocol: (§1) After 24 h, the animals were sedated by i.m. injection of ketamine and xylazine, and then injected i.v. with Tc-99m labeled peptide (≤150 μg, 2-10 mCi). The animals were positioned supine in the field of view of a gamma camera (LEAP colimator/photopeaked for Tc-99m) and imaged over the first hour post-injection, and then at approximately 1 h intervals over the next three hours post injection. Animals were allowed to recover between image acquisitions and re-anesthetized as needed.
(§2) Upon completion of the final imaging, each animal was sacrificed by overdose of phenobarbital i.v. and dissected to obtain samples of blood and of infected and control muscle tissue. The tissue samples were weighed, and along with a standard amount of the injected dose, were counted using a gamma counter, and the percent injected dose (per gram of tissue) remaining in the tissues was determined. Ratios of percent of injected dose per gram of infected versus non-infected muscle tissue, and of infected muscle tissue versus blood, were calculated for each peptide. Scintiphotos of whole body and leg images of a rabbit injected with a Tc-99m labeled reagent of the invention, having the formula

in vivo = assay: in vivo; design: species or system New Zealand white rabbits; settings: rabbit, iv
Protocol: as §1, §2

[1] = New Zealand white, total radioactivity, Blood (% ID/g)
[2] = New Zealand white, total radioactivity, Control Muscle (% ID/g)

Molecule | Ratio of Infected/Blood (infected muscle tissue) | Ratio of Infected/Control (infected muscle tissue) | Blood (% ID/g) (infected muscle tissue) | Control Muscle (% ID/g) (infected muscle tissue) | tissue uptake (in vivo; [1]) | tissue uptake (in vivo; [2]) | tissue uptake (in vivo; Blood (% ID/g)) | tissue uptake (in vivo; Control Muscle (% ID/g))
acetyl.KKKKKCAcm GCAcm GGPLYKKIIKKLLES (Ac-KKKKKC(Acm)GC(Acm)GGPLYKKIIKKLLES; also: Tc-99m label) [Ac.KKKKKCAcm GCAcm GGPLYKKIIKKLLES] | 0.93 | 5.60 | 0.006 % ID/g | 0.0019 % ID/g | – | – | – | –
CAcm GCAcm TKPR (C(Acm)GC(Acm)TKPR; also: Tc-99m label) | 2.07 | 2.40 | 0.003 % ID/g | 0.0025 % ID/g | – | – | – | –
(acetyl.CCAcm GCAcm PLYKKIIKKLLES)2.BSME ({Ac-Cys-C(Acm)-Gly-C(Acm)}-PLYKKIIKKLLES; also: dimer via BSME, Tc-99m label) [(Ac.CCAcm GCAcm PLYKKIIKKLLES)2 BSME] | 0.84 | 7.45 | 0.010 % ID/g | 0.0011 % ID/g | – | – | – | –
acetyl.CAcm GCAcm GGG(VPGVG)4 amide (Ac-C(Acm)GC(Acm)GGGVPGVGVPGVGVPGVGVPGVG-NH2; also: Tc-99m label) [Ac.CAcm GCAcm GGG(VPGVG)4 amide] | 0.63 | 3.97 | 0.049 % ID/g | 0.0077 % ID/g | – | – | – | –
Pic.GC(VGVAPG)3 amide (Picolinoyl-GCVGVAPGVGVAPGVGVAPG-NH2; numbers in words are those of the source; also: Tc-99m label) [PicGC(VGVAPG)3 amide] | 0.69 | 5.58 | 0.015 % ID/g | 0.0019 % ID/g | – | – | – | –
acetyl.CGGGPLYKKIIKKLLES (Ac-CGGGPLYKKIIKKLLES) [Ac.CGGGPLYKKIIKKLLES] | 0.74 | 4.70 | 0.032 % ID/g | 0.0050 % ID/g | – | – | – | –
CCCC(CCC)(NC(=O)[C@H](CCSC)NC=O)C(=O)N[C@@H](Cc1ccccc1)C(=O)NCCCCCN(CCNCC(C)(C)S)CC(C)(C)S [formyl.M.Dpg.F.[BAM], formyl.M.DpgF.[BAM]] | 3.53 | 15.14 | – | – | 0.003 %ID/g | 0.0007 %ID/g | – | –
[BAT].(VPGVG)4 amide ({BAT}-VPGVGVPGVGVPGVGVPGVG-NH2; also: Tc-99m label) | 1.68 | 5.33 | 0.002 % ID/g | 0.0006 % ID/g | – | – | – | –
pGlu.GVNDNEEGFFSARCAcm GCAcm amide ([pGlu]GVNDNEEGFFSARC(Acm)GC(Acm)-NH2; also: Tc-99m label) | 0.68 | 5.68 | 0.024 % ID/g | 0.0029 % ID/g | – | – | – | –
[BAT].GGPLYKKIIKKLLES ({BAT}-GGPLYKKIIKKLLES; also: Tc-99m label) | 0.50 | 7.00 | 0.004 % ID/g | 0.0003 % ID/g | – | – | – | –
CSCC[C@H](NC=O)C(=O)N[C@@H](CC(C)C)C(=O)N[C@@H](Cc1ccccc1)C(=O)N[C@@H](CCCCNC(=O)CCCCN(CCNCC(C)(C)S)CC(C)(C)S)C(N)=O (99mTc complex, metal not drawn) [formyl.MLFK.[BAT]amide, formyl.MLFK.[BAT].amide] (For-MLFK(X1)-NH2) | 3.58 | 7.68 | – | – | – | – | 0.006 %ID/g | 0.0028 %ID/g
CAcm GCAcm (VGVAPG)3 amide (C(Acm)GC(Acm)VGVAPGVGVAPGVGVAPG-NH2; also: Tc-99m label) | 1.69 | 3.94 | 0.011 % ID/g | 0.0017 % ID/g | – | – | – | –
CC(C)C[C@H](NC(=O)C1(NC=O)CCSCC1)C(=O)N[C@@H](Cc1ccccc1)C(=O)NCCCCCN(CCNCC(C)(C)S)CC(C)(C)S [formyl.Thp.LF.[BAM]] | 0.83 | 4.80 | – | – | 0.006 %ID/g | 0.001 %ID/g | – | –
